B1: S-RASSF5 SARAH (domain or fragment)
chain: GEVEWDAFSIPELQNFLTILEKEEQDKIQQVQKKYDKFRQKLEEALRESQGKPG
B2: MST1 SARAHmyc (domain or fragment)
chain: DYEFLKSWTVEDLQKRLLALDPMMEQEIEEIRQKYQSKRQPILDAIEAKKRRQQNF

Target: the molecule itself
Experiment: native MS

Protein | binding result
B1 | binds
B2 | binds
